The text below walks through data of patent publication US20190134153A1, “IMMUNOMODULATORY EFFECT OF INHALED KINASE INHIBITOR PEPTIDES IN LUNG” (MOERAE MATRIX, INC., priority 2017, published 2019).

Some targets named below: GSK3β(h) (Homo sapiens, UniProt P49841); PDGFRα(V561D)(h) (Homo sapiens, UniProt P16234, V561D); CHK2(h) (Homo sapiens, UniProt O96017); BTK(R28H)(h) (Homo sapiens, UniProt Q06187, R28H); BTK(h) (Homo sapiens, UniProt Q06187); Pim-1(h) (Homo sapiens, UniProt P11309); TrkB(h) (Homo sapiens, UniProt Q16620).
Assay in all cases: Kinase Profiling Assay
What all share (format): biochemical
Holding throughout (conditions): 100 μM

The target in another experiment is T1, Rse(h) (Homo sapiens, UniProt Q06418).
T1 sequence (Q06418 41-890): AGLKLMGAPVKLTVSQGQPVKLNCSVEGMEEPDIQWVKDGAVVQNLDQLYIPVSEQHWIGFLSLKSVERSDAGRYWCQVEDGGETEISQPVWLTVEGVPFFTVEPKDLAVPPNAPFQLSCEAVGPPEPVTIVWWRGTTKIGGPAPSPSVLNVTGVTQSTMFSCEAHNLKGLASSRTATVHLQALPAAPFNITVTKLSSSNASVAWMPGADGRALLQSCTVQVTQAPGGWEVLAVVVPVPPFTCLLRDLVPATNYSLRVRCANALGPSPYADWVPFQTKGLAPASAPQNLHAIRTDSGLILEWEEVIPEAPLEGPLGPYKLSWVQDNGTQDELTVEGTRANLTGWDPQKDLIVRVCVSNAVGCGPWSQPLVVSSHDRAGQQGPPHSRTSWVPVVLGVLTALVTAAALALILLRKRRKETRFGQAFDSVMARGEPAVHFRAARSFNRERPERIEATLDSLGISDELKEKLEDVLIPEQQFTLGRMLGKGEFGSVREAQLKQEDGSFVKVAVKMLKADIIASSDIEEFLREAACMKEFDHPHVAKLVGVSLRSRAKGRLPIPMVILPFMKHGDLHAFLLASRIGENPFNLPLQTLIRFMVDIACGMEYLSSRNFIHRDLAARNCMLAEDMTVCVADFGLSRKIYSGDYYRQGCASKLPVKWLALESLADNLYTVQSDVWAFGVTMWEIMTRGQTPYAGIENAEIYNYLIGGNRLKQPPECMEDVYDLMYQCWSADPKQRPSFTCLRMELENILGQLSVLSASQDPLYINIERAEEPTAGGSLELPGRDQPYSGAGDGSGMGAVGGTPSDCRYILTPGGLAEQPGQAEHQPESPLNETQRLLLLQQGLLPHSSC

A further experiment deals with T2, EphA3(h) (Homo sapiens, UniProt P29320).
T2 sequence (P29320 21-983): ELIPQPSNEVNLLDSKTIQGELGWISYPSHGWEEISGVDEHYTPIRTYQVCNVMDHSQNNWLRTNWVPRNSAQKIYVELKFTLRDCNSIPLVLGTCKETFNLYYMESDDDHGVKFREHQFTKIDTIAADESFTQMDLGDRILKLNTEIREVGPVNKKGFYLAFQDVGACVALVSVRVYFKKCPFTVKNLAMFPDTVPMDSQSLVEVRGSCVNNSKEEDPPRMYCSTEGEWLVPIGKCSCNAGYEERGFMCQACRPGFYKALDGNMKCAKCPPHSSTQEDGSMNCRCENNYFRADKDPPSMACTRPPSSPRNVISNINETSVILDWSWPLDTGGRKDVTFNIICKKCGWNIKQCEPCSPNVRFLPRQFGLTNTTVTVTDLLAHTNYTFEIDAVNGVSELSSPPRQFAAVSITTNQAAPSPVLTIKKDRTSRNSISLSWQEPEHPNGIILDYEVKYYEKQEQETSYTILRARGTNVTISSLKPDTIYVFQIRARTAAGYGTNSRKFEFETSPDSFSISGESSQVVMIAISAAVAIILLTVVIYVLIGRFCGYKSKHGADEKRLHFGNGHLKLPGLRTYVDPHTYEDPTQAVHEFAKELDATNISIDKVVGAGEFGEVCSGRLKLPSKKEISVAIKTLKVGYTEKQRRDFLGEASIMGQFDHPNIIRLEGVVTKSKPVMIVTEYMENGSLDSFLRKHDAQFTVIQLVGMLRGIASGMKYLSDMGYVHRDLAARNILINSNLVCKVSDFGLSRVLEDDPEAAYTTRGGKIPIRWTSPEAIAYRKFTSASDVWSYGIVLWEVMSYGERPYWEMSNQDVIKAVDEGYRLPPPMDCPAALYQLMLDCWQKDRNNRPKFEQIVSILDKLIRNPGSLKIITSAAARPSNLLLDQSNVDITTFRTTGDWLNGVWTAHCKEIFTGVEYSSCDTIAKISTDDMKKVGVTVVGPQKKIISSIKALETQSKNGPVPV

Chain of BTK(R28H)(h) (Q06187 whole entry R28H): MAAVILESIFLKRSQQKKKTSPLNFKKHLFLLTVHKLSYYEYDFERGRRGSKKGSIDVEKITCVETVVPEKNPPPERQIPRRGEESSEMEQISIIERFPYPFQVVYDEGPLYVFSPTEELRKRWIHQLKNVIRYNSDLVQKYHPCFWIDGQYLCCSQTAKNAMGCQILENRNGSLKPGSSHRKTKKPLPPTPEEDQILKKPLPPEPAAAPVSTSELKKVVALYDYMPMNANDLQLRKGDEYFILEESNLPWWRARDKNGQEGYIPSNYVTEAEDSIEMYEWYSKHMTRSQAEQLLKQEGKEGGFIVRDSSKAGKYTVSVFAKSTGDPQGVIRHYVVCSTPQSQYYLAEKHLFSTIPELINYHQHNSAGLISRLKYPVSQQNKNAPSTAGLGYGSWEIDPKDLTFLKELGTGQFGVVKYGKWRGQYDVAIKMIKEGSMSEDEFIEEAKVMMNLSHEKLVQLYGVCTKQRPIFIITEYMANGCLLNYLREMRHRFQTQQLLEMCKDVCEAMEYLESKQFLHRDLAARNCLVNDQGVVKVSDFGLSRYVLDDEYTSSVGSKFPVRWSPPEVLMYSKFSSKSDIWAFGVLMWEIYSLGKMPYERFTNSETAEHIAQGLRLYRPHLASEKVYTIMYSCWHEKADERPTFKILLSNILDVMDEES
Chain of CHK2(h) (O96017 whole entry): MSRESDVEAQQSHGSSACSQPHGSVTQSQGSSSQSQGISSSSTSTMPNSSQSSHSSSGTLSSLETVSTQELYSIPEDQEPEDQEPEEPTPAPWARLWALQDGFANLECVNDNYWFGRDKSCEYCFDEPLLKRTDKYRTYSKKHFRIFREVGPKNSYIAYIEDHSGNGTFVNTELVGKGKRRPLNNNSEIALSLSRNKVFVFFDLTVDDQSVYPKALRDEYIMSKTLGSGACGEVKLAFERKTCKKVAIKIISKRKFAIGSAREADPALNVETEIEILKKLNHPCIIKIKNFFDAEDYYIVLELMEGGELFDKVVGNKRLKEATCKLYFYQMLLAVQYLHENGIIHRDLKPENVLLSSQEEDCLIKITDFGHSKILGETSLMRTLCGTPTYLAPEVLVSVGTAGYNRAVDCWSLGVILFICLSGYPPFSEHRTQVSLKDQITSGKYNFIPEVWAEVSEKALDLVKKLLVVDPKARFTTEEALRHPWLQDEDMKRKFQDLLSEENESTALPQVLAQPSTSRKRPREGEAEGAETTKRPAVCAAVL
Chain of PDGFRα(V561D)(h) (P16234 24-1089 V561D): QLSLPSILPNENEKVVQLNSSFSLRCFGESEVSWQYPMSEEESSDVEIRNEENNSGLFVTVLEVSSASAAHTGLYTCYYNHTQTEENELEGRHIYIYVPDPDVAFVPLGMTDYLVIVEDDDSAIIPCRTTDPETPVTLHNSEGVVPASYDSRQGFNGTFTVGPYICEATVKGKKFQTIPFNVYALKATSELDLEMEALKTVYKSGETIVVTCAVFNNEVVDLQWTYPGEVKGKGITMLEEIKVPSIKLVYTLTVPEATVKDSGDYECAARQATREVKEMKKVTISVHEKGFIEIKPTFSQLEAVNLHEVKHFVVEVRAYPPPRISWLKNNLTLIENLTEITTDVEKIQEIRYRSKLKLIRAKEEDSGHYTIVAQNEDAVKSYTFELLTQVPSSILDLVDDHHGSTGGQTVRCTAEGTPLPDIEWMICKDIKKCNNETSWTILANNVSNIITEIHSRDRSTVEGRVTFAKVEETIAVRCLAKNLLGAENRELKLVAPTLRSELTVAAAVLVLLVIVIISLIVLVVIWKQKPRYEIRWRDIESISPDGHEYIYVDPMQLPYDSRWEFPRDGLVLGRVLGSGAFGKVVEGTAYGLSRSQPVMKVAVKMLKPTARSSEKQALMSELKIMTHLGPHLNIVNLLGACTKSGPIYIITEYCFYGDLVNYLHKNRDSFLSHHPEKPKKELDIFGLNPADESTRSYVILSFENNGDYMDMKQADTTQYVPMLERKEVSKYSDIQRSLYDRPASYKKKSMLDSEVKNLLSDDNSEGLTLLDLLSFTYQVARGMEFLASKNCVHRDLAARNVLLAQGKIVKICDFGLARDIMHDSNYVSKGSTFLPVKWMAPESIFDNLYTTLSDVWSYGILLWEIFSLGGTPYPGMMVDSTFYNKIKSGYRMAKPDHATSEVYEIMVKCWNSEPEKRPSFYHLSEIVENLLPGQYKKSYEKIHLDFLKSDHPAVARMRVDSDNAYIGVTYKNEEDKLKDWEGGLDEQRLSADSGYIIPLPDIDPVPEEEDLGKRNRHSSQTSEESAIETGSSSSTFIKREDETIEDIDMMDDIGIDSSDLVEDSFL
Chain of GSK3β(h) (P49841 whole entry): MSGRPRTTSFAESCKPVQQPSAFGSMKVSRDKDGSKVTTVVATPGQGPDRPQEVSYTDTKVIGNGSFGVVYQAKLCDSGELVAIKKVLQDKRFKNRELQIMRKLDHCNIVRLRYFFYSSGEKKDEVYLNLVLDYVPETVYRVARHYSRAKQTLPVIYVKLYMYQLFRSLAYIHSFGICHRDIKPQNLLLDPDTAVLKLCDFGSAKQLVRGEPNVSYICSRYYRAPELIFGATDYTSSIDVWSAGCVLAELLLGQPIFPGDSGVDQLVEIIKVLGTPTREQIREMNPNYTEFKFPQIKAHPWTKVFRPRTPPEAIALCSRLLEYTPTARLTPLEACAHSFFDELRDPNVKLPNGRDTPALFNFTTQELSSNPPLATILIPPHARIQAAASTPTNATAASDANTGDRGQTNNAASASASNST
Chain of BTK(h) (Q06187 whole entry): as the sequence (Q06187 whole entry R28H) above, with H28R counted along it
Chain of Pim-1(h) (P11309 whole entry): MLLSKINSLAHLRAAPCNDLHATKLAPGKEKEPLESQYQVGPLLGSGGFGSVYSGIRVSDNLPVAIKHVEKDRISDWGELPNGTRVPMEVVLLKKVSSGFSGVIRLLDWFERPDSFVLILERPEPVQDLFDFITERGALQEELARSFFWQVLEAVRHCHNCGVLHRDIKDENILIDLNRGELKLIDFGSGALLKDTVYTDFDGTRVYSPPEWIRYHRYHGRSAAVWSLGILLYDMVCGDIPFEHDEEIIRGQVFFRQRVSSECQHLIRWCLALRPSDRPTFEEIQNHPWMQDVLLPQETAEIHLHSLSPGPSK

As for HRRIKAWLKKIKALARQLGVAA [MMI-0500], the “% activity” value with GSK3β(h) is 238%; with Rse(h), 63%; with EphA3(h), 33%; with PDGFRα(V561D)(h), 146%; with CHK2(h) it was 13%; with BTK(R28H)(h) it was 10%. The “% activity” value stood at 18% with BTK(h), 0% in the experiment with Pim-1(h) and 12% in the experiment with TrkB(h).

In the case of YARAAARQARAKALNRQLGVA [MMI-0200], the “% activity” value was 132% with GSK3β(h); 88% with Rse(h); 100% in the experiment with BTK(h); 18% with Pim-1(h); 7% with TrkB(h).

For the sequence KAFAKLAARLYRKALARQLGVAA [MMI-0400], the “% activity” value in the experiment with GSK3β(h) is 202%; in the experiment with Rse(h) it was 89%; with EphA3(h), 12%; in the experiment with PDGFRα(V561D)(h), 100%; with CHK2(h) it was 54%; in the experiment with BTK(R28H)(h) it was 24%. For the same sequence, the “% activity” value with BTK(h) was 94%; with Pim-1(h) it was 7%; with TrkB(h), 8%.

Turning to FAKLAARLYRKALARQLGVAA [MMI-0300], the “% activity” value with GSK3β(h) was determined as 205%; with Rse(h), 88%; with EphA3(h) it was 6%; with PDGFRα(V561D)(h) it was 82%; with CHK2(h), 66%; with BTK(R28H)(h), 74%. Besides, the entries for the “% activity” value with Pim-1(h) and with TrkB(h) were 8% and 5%, respectively.
